Results as given in patent US20220017620A1 (SHANGHAI FUDAN ZHANGJIANG BIO PHARMACEUTICAL, published 2022).

Legend:
[1] = target: T1, 4Ig B7-H3 (soluble human B7-H3 protein with 435 amino acids) (human, UniProt Q5ZPR3 27-461, limits assumed); experiment: SPR, BIAcore T200, antibody amine-coupled to the chip, antigen as analyte, 1:1 Langmuir fit
T1 construct: also called 4Ig-B7H3 antigen; B7H3/4Ig
T1 sequence: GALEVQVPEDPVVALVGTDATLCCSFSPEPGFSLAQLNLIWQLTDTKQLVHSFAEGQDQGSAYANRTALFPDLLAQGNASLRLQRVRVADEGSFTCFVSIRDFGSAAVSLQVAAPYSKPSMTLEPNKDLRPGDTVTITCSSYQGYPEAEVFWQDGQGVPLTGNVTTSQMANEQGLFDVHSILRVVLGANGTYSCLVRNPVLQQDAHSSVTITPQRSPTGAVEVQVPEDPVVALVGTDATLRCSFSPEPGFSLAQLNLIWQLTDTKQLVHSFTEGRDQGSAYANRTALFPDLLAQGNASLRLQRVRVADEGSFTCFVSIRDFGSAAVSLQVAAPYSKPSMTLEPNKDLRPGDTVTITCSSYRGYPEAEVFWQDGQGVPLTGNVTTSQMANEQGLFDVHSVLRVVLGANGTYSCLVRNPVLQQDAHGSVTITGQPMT
Procedure: SPR detection was performed with BIAcore T200 (GE) system. Series Sensor Chip CMS and the amine coupling kit for immobilization were purchased from GE.
The B7-H3 antigen was diluted with HBS-EP buffer in a certain proportion to concentration gradients of 0 nM, 0.15625 nM, 0.3125 nM, 0.625 nM, 1.25 nM (two replicates), 2.5 nM, 5 nM, 10 nM, 20 nM, the flow rate was set to 30 μL/min, the binding time was set to 120 s, and the dissociation time was set to 1800 s for sample analysis. For regeneration, Gly-HCl buffer (pH 1.5) could be used as a regeneration buffer, the flow rate was set to 30 μL/min, and regeneration was performed for 30 s. The experiment adopted multi-cycle operation, for the response signal, the analysis time was set as the abscissa and the response value was set as the ordinate. The obtained data was fitted by BIAcore T200 analysis software. The fitting model used was 1:1 Langmuir binding model, and the kinetic constants such as the binding rate constant, the dissociation rate constant, and the binding and dissociation constant were determined.

[2] = target: T2, 2Ig B7-H3 (soluble human B7-H3 with 217 amino acids) (human, UniProt Q5ZPR3 29-463); experiment: ELISA on coated antigen, IgG1 antibody
T2 construct: also called 2IgB7-H3 domain
T2 sequence: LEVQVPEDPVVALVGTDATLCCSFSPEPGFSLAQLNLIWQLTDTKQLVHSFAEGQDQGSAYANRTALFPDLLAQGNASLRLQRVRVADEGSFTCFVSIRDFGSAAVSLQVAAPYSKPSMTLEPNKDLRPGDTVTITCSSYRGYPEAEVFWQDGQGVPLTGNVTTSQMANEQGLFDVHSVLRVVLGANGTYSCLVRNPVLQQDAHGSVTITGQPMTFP
Procedure: (§1) Protein binding: 100 μL of antigen B7-H3 (R&D) at 20 ng/ml was coated onto microplate, incubated at 2-8° C. overnight. Subsequently, 100 μL of the prepared full-length IgG1 antibody described above was added with a total of 8 concentrations started from 2000 ng/ml and serially diluted with 3-fold, incubating at 37° C., 600 rpm for 1 hour. After the plate was washed for three times, Goat anti human IgG (Fc)-HRP enzyme-linked antibody was added and the plate was shook at 37° C. and 600 rpm for 1 hour. After the plate was washed for 4 times, TMB chromogenic solution was aliquoted in and incubated for 10 minutes, then 1 mol/L […] stop solution at 100 μL/well was aliquoted to stop the reaction and the absorbance was measured.

IgV domain of B7-H3 [3] = target: T3, IgV domain of B7-H3 (human, UniProt Q5ZPR3 30-130); experiment: ELISA on coated antigen, IgG1 antibody
T3 sequence: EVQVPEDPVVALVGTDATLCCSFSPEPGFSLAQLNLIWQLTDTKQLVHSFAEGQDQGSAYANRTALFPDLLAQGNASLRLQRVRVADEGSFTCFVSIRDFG
Procedure: as §1

IgC domain of B7-H3 = target: T4, IgC domain of B7-H3 (human, UniProt Q5ZPR3 141-242); experiment: ELISA on coated antigen, IgG1 antibody
T4 sequence: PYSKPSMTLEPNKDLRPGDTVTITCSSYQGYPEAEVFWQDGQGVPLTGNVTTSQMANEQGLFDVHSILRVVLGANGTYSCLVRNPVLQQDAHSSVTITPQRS
Procedure: as §1

[4] = target: T1, 4Ig B7-H3 (soluble human B7-H3 protein …); experiment: ELISA on coated antigen, IgG1 antibody
Procedure: as §1

[5] = target: T5, B7-H3 on B7-H3 transfected CHO cells; experiment: cell-based ELISA on B7-H3 transfected CHO-K1 cells
T5 construct: whole, on cells; also called CHO cells transfected with B7-H3
T5 sequence (Q5ZPR3 1-534, species assumed, looked up): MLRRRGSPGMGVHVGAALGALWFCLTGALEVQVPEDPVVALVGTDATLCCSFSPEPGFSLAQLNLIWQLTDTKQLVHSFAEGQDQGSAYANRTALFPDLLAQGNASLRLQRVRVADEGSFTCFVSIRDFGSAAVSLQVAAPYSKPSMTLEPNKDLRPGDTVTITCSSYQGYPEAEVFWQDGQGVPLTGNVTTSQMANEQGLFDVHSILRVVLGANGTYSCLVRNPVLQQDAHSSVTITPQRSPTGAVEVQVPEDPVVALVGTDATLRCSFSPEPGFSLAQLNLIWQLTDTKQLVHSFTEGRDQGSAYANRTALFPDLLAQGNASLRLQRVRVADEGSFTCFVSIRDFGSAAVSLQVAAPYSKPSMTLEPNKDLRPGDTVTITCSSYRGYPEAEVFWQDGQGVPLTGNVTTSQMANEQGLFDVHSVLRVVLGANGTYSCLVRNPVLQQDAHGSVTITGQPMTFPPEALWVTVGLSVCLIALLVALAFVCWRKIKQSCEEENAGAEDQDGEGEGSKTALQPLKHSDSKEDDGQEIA

antigen B7-H3 (R&D) = target: T6, antigen B7-H3 (R&D); experiment: ELISA on coated B7-H3
T6 construct: construct not described; also called B7-H3 protein; coated B7-H3 protein
T6 sequence (Q5ZPR3 whole entry, species assumed, looked up): T5 sequence (Q5ZPR3 1-534, species assumed, looked up)
Procedure: as §1

IgV domain of B7-H3 [6] = target: T3, IgV domain of B7-H3; experiment: ELISA on B7-H3 domains, IgG1 antibody
Procedure: as §1

B1: P1G2 full-length IgG1 antibody (antibody, V domains shown)
VH: QVQLQQSGAEVKKPGSSVKVSCKASGGTFSSYAISWVRQAPGQGLEWMGRIIPILGIANYAQKFQGRVTITADKSTSTAYMELSSLRSEDTAVYYCAVNYYDSSGYYSDYWGQGTLVTVSS
VL: SYELTQPPSASGSPGQSVTISCTGTSSDVGGYNYVSWYQQHPGKAPRLMIYGVSQRPSGVPDRFSGSKSGNTASLTVSGLQAEDEADYYCSSYANNNYVFGTGTKVTVL
Kd [1]: 0.23 nM | koff [1]: 0.00167 s⁻¹ | kon [1]: 7.26e+06 M⁻¹ s⁻¹ | ELISA signal value [2]: 0.6 to 1.5 elisasignalvalue | ELISA signal value (IgV domain of B7-H3 [3]): 0.3 to 0.5 elisasignalvalue | ELISA signal value (IgC domain of B7-H3): 0.3 to 0.5 elisasignalvalue | ELISA signal value [4]: 1.6 to 3 elisasignalvalue

B2: P2E5 full-length IgG1 antibody (antibody, V domains shown)
VH: QVTLKESGGGLVQPGGSLRLSCAASGFTFSNSYMTWVRQAPGMGLEWVASMKPDGSVKHYVDSVKGRFTISRDNTKNSLDLQMNSLRAEDTAVYYCSSYDTRWGWFDPWGEGTLVTVSS
VL: QTVVTQEPSFSVSPGGTVTLTCGLNSGSVSTSYFPSWYQQTPGQAPRTLIYNTNTRSSGVPDRFSGSILGNKAALTITGAQADDESDYYCLLYMDSGPHWVFGGGTKLTVL
notes: also called biotin-P2E5
Kd [1]: 2.4 nM | koff [1]: 5.9e-05 s⁻¹ | kon [1]: 42500 M⁻¹ s⁻¹ | EC50 (read off the curve) [5]: ~0.02 µg/mL | ELISA signal value [2]: 0.3 to 0.5 elisasignalvalue | ELISA signal value (IgV domain of B7-H3 [3]): 0.3 to 0.5 elisasignalvalue | ELISA signal value (IgC domain of B7-H3): 0.3 to 0.5 elisasignalvalue | ELISA signal value [4]: 0.6 to 1.5 elisasignalvalue

B3: P3H6 full-length IgG1 antibody (antibody, V domains shown)
VH: QVQLVQSGAEVKKPGESLKISCKGSGYSFSNYWIGWVRQMPGKGLEWMGIIYPGDSDTRYSPSFQGQVTISADKSISTAYLQWSSLKASDTAMYYCARSRGYPTNYMDVWGRGTTVTVSS
VL: QAVLTQPPSVSGAPRQRVTISCSGSSSNIGNNIVSWYQHLPGKAPRLLIYRERQRPSGVPDRFSGSKSGTSASLAISGLRSEDEADYYCATWDDSLNSWVFGGGTKLTVL
ELISA signal value (IgV domain of B7-H3 [3]): 1.6 to 3 elisasignalvalue | EC50 (read off the curve) (antigen B7-H3 (R&D)): ~0.1 µg/mL

B4: P1E11 full-length IgG1 antibody (antibody, V domains shown)
VH: not shown
VL: EIVLTQSPLSLPVTLGQPASISCRSSQSLVHSDGNTYLNWFQQRPGQSPRRLIYKVSNRDSGVPDRFSGSGSGTDFTLKISRVEAEDVGFYYCMQGTHWPPGTFGQGTKLEIK
notes: also called biotin-P1E11
binding result (IgV domain of B7-H3 [6]): no binding (tested: ELISA signal value 0.1~0.2) | Kd [1]: 0.0248 nM | koff [1]: 7.76e-05 s⁻¹ | kon [1]: 3.13e+06 M⁻¹ s⁻¹ | ELISA signal value [2]: 1.6 to 3 elisasignalvalue | ELISA signal value (IgC domain of B7-H3): 0.6 to 1.5 elisasignalvalue
